target: T1, HLA-A*0201 (human); assay: UV-ligand exchange, streptavidin/anti-b2m sandwich ELISA
T1 construct: MHC monomer first loaded with a UV-sensitive peptide that is cleaved and exchanged for the test peptide; captured on streptavidin; also called peptide-receptive MHC molecules
Excerpt: Candidate peptides for the vaccines according to the present invention were further tested for immunogenicity by in vitro priming assays. The individual peptide-MHC complexes required for these assays were produced by UV-ligand exchange, where a UV-sensitive peptide is cleaved upon UV-irradiation, and exchanged with the peptide of interest as analyzed. Only peptide candidates that can effectively bind and stabilize the peptide-receptive MHC molecules prevent dissociation of the MHC complexes. To determine the yield of the exchange reaction, an ELISA was performed based on the detection of the light chain (β2m) of stabilized MHC complexes.
96 well MAXISorp plates (NUNC) were coated over night with 2ug/ml streptavidin in PBS at room temperature, washed 4× and blocked for 30 min at 37° C. in 2% BSA containing blocking buffer. Refolded HLAA*0201/MLA-001 monomers served as standards, covering the range of 8-500 ng/ml. Peptide-MHC monomers of the UV-exchange reaction were diluted 100 fold in blocking buffer. Samples were incubated for 1 h at 37° C., washed four times, incubated with 2ug/ml HRP conjugated anti-β2m for 1 h at 37° C., washed again and detected with TMB solution that is stopped with […]. Absorption was measured at 450 nm.

Row | Binder | Average exchange yield in % [%]
1 | SMSGYDQVL (synthetic peptide from HNRNPH1, HNRNPH2) [HNRNPH-001] | 26
2 | KLDETNNTL (synthetic peptide from DST) [DST-002] | 59
3 | AIDGNNHEV (synthetic peptide from GFPT2) [GFPT2-001] | 43
4 | ALFPHLLQPV (synthetic peptide from CSE1L) [CSE1-001] | 55
5 | SLFGNSGILENV (synthetic peptide from CEP192) [CEP192-001] | 56
6 | FLVDGSWSV (synthetic peptide from COL12A1) [COL12A1-002] | 55
7 | ALDENLHQL (synthetic peptide from ABCA13) [ABCA13-002] | 36
8 | ALLRTVVSV (synthetic peptide from GALNT2) [GALNT2-001] | 73
9 | AVVEFLTSV (synthetic peptide from DROSHA) [DROSHA-001] | 68
10 | ILFEINPKL (synthetic peptide from ABCA13) [ABCA13-001] | 93
11 | TLWYRAPEV (synthetic peptide from CDK4/CDK6) [CDK4-001] | 45
12 | YLIHFPVSV (synthetic peptide from AKR1C1, AKR1C2) [AKR-001] | 13
13 | RLLGPSAAADILQL (synthetic peptide from HUWE1) [HUWE1-001] | 45
14 | KLAVALLAA (synthetic peptide from IL8) [IL8-001] | 41
15 | FLLDGSANV (synthetic peptide from COL6A3) [COL6A3-002] | 81
16 | VLFPNLKTV (synthetic peptide from BNC1) [BNC1-001] | 43
17 | KLLTEVHAA (synthetic peptide from ADAM8) [ADAM8-001] | 67
18 | KIVDFSYSV (synthetic peptide from BUB1B) [BUB1B-001] | 59

Now from value to binder:

Row | Average exchange yield in % [%] | Binder
19 | 54 | KLVEFDFLGA (synthetic peptide from TACC3) [TACC3-001]
20 | 50 | SLIEDLILL (synthetic peptide from SMYD3) [SMYD3-001]
21 | 69 | SLLPVDIRQYL (synthetic peptide from STAT2) [STAT2-001]
22 | 41 | TLYPHTSQV (synthetic peptide from VCAN) [VCAN-001]
23 | 61 | RLLDSVSRL (synthetic peptide from LAMC2) [LAMC2-001]
24 | 87 | GVLENIFGV (synthetic peptide from PCNXL3) [PCNXL3-001]
25 | 18 | AIMGFIGFFV (synthetic peptide from SEC61G) [SEC61G-001]
26 | 71 | ALMDKEGLTAL (synthetic peptide from TANC2) [TANC2-001]
27 | 54 | GLIEIISNA (synthetic peptide from SNRNP200) [SNRNP20-001]
28 | 48 | SLYKGLLSV (synthetic peptide from RAD54B) [RAD54B-001]
29 | 37 | AMSSKFFLV (synthetic peptide from WNT5A) [WNT5A-001]
30 | 56 | GLTDNIHLV (synthetic peptide from MXRA5) [MXRA5-002]
31 | 56 | KILEDVVGV (synthetic peptide from TPX2) [TPX2-001]
